The record followed here is the supplement of paper PMC7125110.

The labels stand for the following.
B1: glmS ribozyme (parent)
chain: AUAAAAGCGCCAGAACUACAGAAAUGUAGUUGACGAGGAGGAGGUUUAUCGAAUUUUCGGCGGAUGCCUCCAAA

Common to all, as to conditions: with glucosamine-6-phosphate
Data set [1] covers variants of B1. As to the kind of experiment: self-cleavage kobs at 640 uM GlcN6P; higher = faster cleavage; RNA array. In a few lines:
(§1)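 A hybridised Cy3 probe tracked barcoded ribozyme variants, transcribed in situ by E. coli RNA polymerase on sequenced MiSeq chips, at 37 °C. The variants received 40 μM to 10 mM glucosamine-6-phosphate in HEPES/KCl/Mg(OAc)2 buffer. kobs came from decay fits and kcat and KM from weighted Michaelis–Menten fits.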

The variants in data set [2] derive from B1. Nature of the data set: self-cleavage kobs at 2500 uM GlcN6P; higher = faster cleavage; RNA array. In a few lines:
as §1

The variants in data set [3] derive from B1. Nature of the data set: self-cleavage kobs at 160 uM GlcN6P; higher = faster cleavage; RNA array. Summed up: as §1
Data set [4] covers variants of B1. Nature of the data set: self-cleavage kobs at 10000 uM GlcN6P; higher = faster cleavage; RNA array. Summed up:
as §1

± gives the standard error. Variants at the floor of the assay were thinned out. Bounds are passed on as bounds.

Take G41A A48C A52U: the “self-cleavage kobs at 640 uM GlcN6P” value in the data set with glucosamine-6-phosphate [1] is below 1e-05 s⁻¹.

On to G9U G32A G43C, for which the “self-cleavage kobs at 640 uM GlcN6P” value with glucosamine-6-phosphate [1] is below 1e-05 s⁻¹.

As to C8U U30A A39U, in the data set with glucosamine-6-phosphate [1], the “self-cleavage kobs at 640 uM GlcN6P” value is below 1e-05 s⁻¹. For the same variant, the “self-cleavage kobs at 2500 uM GlcN6P” value with glucosamine-6-phosphate [2] is below 1e-05 s⁻¹.

Take C58G U69A: in the data set with glucosamine-6-phosphate [3], the “self-cleavage kobs at 160 uM GlcN6P” value came to 5.46e-05 ± 2.7e-05 s⁻¹. The “self-cleavage kobs at 640 uM GlcN6P” value with glucosamine-6-phosphate [1] was found to be 0.000406 ± 9.6e-05 s⁻¹.

As for C11U U56G, in the data set with glucosamine-6-phosphate [3], the “self-cleavage kobs at 160 uM GlcN6P” value is 4.58e-05 ± 1.6e-05 s⁻¹. Further, in the data set with glucosamine-6-phosphate [1], the “self-cleavage kobs at 640 uM GlcN6P” value was 0.000297 ± 5.6e-05 s⁻¹. For the same variant, the “self-cleavage kobs at 2500 uM GlcN6P” value with glucosamine-6-phosphate [2] was found to be 0.000254 ± 9.7e-05 s⁻¹. In addition, in the data set with glucosamine-6-phosphate [4], the “self-cleavage kobs at 10000 uM GlcN6P” value was found to be 0.00158 ± 0.00036 s⁻¹.

Regarding U30C U47G, in the data set with glucosamine-6-phosphate [1], the “self-cleavage kobs at 640 uM GlcN6P” value came out at 6.62e-05 ± 2.2e-05 s⁻¹. In addition, in the data set with glucosamine-6-phosphate [2], the “self-cleavage kobs at 2500 uM GlcN6P” value is 3.09e-05 ± 1.1e-05 s⁻¹. The “self-cleavage kobs at 10000 uM GlcN6P” value with glucosamine-6-phosphate [4] worked out at 2.83e-05 ± 6e-06 s⁻¹.

Take U30G U46C U47G: the “self-cleavage kobs at 640 uM GlcN6P” value with glucosamine-6-phosphate [1] was 8.33e-05 ± 2.2e-05 s⁻¹.

On to C8G U30G G37A G66A U69G, for which, in the data set with glucosamine-6-phosphate [3], the “self-cleavage kobs at 160 uM GlcN6P” value stood at 0.000132 ± 4.9e-05 s⁻¹. Also, in the data set with glucosamine-6-phosphate [1], the “self-cleavage kobs at 640 uM GlcN6P” value stood at 0.000166 ± 6e-05 s⁻¹.

Turning to A6C C10A C34G C50U U56A, in the data set with glucosamine-6-phosphate [1], the “self-cleavage kobs at 640 uM GlcN6P” value is below 1e-05 s⁻¹. The “self-cleavage kobs at 2500 uM GlcN6P” value in the data set with glucosamine-6-phosphate [2] is below 1e-05 s⁻¹.

A48U U55G C71A: in the data set with glucosamine-6-phosphate [1], the “self-cleavage kobs at 640 uM GlcN6P” value was 2.8e-05 ± 1.3e-05 s⁻¹.

Take U55A C58U: the “self-cleavage kobs at 160 uM GlcN6P” value with glucosamine-6-phosphate [3] was below 1e-05 s⁻¹. Further, the “self-cleavage kobs at 10000 uM GlcN6P” value in the data set with glucosamine-6-phosphate [4] stood at 7.74e-05 ± 6.6e-06 s⁻¹.

Regarding A6U C11U, the “self-cleavage kobs at 160 uM GlcN6P” value with glucosamine-6-phosphate [3] was below 1e-05 s⁻¹.

In the case of U2C G32U G44A U47G, the “self-cleavage kobs at 640 uM GlcN6P” value with glucosamine-6-phosphate [1] is below 1e-05 s⁻¹. The “self-cleavage kobs at 2500 uM GlcN6P” value in the data set with glucosamine-6-phosphate [2] was below 1e-05 s⁻¹.

Take G13C A15C C61U A64U C67A: the “self-cleavage kobs at 640 uM GlcN6P” value in the data set with glucosamine-6-phosphate [1] is below 1e-05 s⁻¹.

Take G7U C67U C71G: the “self-cleavage kobs at 640 uM GlcN6P” value with glucosamine-6-phosphate [1] came out at 7.36e-05 ± 2.2e-05 s⁻¹.

On to G38C U45A C70G, for which the “self-cleavage kobs at 640 uM GlcN6P” value in the data set with glucosamine-6-phosphate [1] is below 1e-05 s⁻¹. Also, the “self-cleavage kobs at 10000 uM GlcN6P” value in the data set with glucosamine-6-phosphate [4] is below 1e-05 s⁻¹.

With A6G G43A C68A, in the data set with glucosamine-6-phosphate [1], the “self-cleavage kobs at 640 uM GlcN6P” value is below 1e-05 s⁻¹.

Take A48U G59A C67U: in the data set with glucosamine-6-phosphate [1], the “self-cleavage kobs at 640 uM GlcN6P” value is below 1e-05 s⁻¹. Also, the “self-cleavage kobs at 2500 uM GlcN6P” value with glucosamine-6-phosphate [2] was below 1e-05 s⁻¹.

As for A52C U57G U69G, in the data set with glucosamine-6-phosphate [1], the “self-cleavage kobs at 640 uM GlcN6P” value amounted to 8.06e-05 ± 2.8e-05 s⁻¹.

As to G37C G62C G63C C67U, in the data set with glucosamine-6-phosphate [1], the “self-cleavage kobs at 640 uM GlcN6P” value was below 1e-05 s⁻¹.

As to A36C U54G G63A, the “self-cleavage kobs at 640 uM GlcN6P” value in the data set with glucosamine-6-phosphate [1] was below 1e-05 s⁻¹.

On to U31C U69A, for which the “self-cleavage kobs at 160 uM GlcN6P” value with glucosamine-6-phosphate [3] came out at 4.12e-05 ± 1.4e-05 s⁻¹. The “self-cleavage kobs at 2500 uM GlcN6P” value in the data set with glucosamine-6-phosphate [2] worked out at 5.91e-05 ± 1.4e-05 s⁻¹.

As for A6U G40C G44C C50U, the “self-cleavage kobs at 640 uM GlcN6P” value in the data set with glucosamine-6-phosphate [1] is below 1e-05 s⁻¹. The “self-cleavage kobs at 2500 uM GlcN6P” value with glucosamine-6-phosphate [2] is below 1e-05 s⁻¹.

For C34U C68U C70U, the “self-cleavage kobs at 640 uM GlcN6P” value with glucosamine-6-phosphate [1] is below 1e-05 s⁻¹.

On to G9U G13C G43A, for which the “self-cleavage kobs at 640 uM GlcN6P” value with glucosamine-6-phosphate [1] was below 1e-05 s⁻¹.

Regarding A42C A53C, the “self-cleavage kobs at 160 uM GlcN6P” value in the data set with glucosamine-6-phosphate [3] was below 1e-05 s⁻¹. Besides, in the data set with glucosamine-6-phosphate [1], the “self-cleavage kobs at 640 uM GlcN6P” value is below 1e-05 s⁻¹.

As to A12U C34G G51U U57A U65G, the “self-cleavage kobs at 640 uM GlcN6P” value with glucosamine-6-phosphate [1] is below 1e-05 s⁻¹.

With G43A A64U C67A, the “self-cleavage kobs at 640 uM GlcN6P” value with glucosamine-6-phosphate [1] is below 1e-05 s⁻¹.

As for U57G C58G C67G, in the data set with glucosamine-6-phosphate [1], the “self-cleavage kobs at 640 uM GlcN6P” value was determined as 0.000157 ± 5.5e-05 s⁻¹. Further, the “self-cleavage kobs at 2500 uM GlcN6P” value with glucosamine-6-phosphate [2] is 6.13e-05 ± 2.6e-05 s⁻¹. The “self-cleavage kobs at 10000 uM GlcN6P” value with glucosamine-6-phosphate [4] was found to be 3.89e-05 ± 1.9e-05 s⁻¹.

Consider A6G G37A U46A U54A, for which, in the data set with glucosamine-6-phosphate [1], the “self-cleavage kobs at 640 uM GlcN6P” value is below 1e-05 s⁻¹. Also, the “self-cleavage kobs at 10000 uM GlcN6P” value with glucosamine-6-phosphate [4] is below 1e-05 s⁻¹.

Take G32A C58G C68U: in the data set with glucosamine-6-phosphate [1], the “self-cleavage kobs at 640 uM GlcN6P” value stood at 5.31e-05 ± 2.4e-05 s⁻¹. Moreover, the “self-cleavage kobs at 2500 uM GlcN6P” value with glucosamine-6-phosphate [2] was 8.37e-05 ± 2.3e-05 s⁻¹.

Take A14G A36C: the “self-cleavage kobs at 160 uM GlcN6P” value with glucosamine-6-phosphate [3] was below 1e-05 s⁻¹. Further, the “self-cleavage kobs at 640 uM GlcN6P” value with glucosamine-6-phosphate [1] was below 1e-05 s⁻¹.

On to A6U G37U A48C C67G, for which, in the data set with glucosamine-6-phosphate [1], the “self-cleavage kobs at 640 uM GlcN6P” value is below 1e-05 s⁻¹. The “self-cleavage kobs at 2500 uM GlcN6P” value with glucosamine-6-phosphate [2] was below 1e-05 s⁻¹.
